Test results: the supplement of paper PMC10065799, “High-throughput profiling of sequence recognition by tyrosine kinases and SH2 domains using bacterial peptide display” (eLife, 2023)

How the values were obtained:
[1] = target: MERTK (UniProt Q12866); assay: phosphorylation enrichment, bacterial display (enrichment ratio); higher = better substrate or ligand; peptides without Tyr show the background
[2] = target: FGFR1 (UniProt P11362); assay: as above
[3] = target: Jak2 (UniProt O60674); assay: as above
[4] = test system: c-Src; assay: as above
[5] = test system: c-Abl (mouse); assay: as above
[6] = target: Fes (UniProt P07332); assay: as above
[7] = test system: Fer (mouse); assay: as above
[8] = target: Fyn (UniProt P06241); assay: as above
[9] = target: EPHB2 (UniProt P29323); assay: as above
[10] = target: FGFR3 (UniProt P22607); assay: as above
[11] = target: EPHB1 (UniProt P54762); assay: as above
[12] = test system: AncSZ; assay: as above
[13] = target: Hck (UniProt P08631); assay: as above
[14] = target: c-Src SH2; assay: SH2 binding enrichment of the phosphorylated peptide, bacterial display (enrichment ratio); higher = better substrate or ligand; peptides without Tyr show the background
[15] = target: Grb2 SH2 (UniProt P62993); assay: as above
[16] = target: SHP2-C SH2; assay: as above
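For SH2 binding enrichment of the phosphorylated peptide, bacterial display in this document: peptide library displayed on the E. coli surface as eCPX fusions, selected cells deep-sequenced, score is each peptide's frequency after selection divided by its frequency in the input.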
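For phosphorylation enrichment, bacterial display in this document: 11-residue human phosphosite peptides and single-mutation variants displayed on the E. coli surface, counted by deep sequencing, each peptide's frequency after selection divided by its frequency in the unselected input library; frequency after pTyr selection over input frequency; kinase dosed for 20-30% of maximal phosphorylation in three min.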

Sequence of Hck (P08631 whole entry, looked up): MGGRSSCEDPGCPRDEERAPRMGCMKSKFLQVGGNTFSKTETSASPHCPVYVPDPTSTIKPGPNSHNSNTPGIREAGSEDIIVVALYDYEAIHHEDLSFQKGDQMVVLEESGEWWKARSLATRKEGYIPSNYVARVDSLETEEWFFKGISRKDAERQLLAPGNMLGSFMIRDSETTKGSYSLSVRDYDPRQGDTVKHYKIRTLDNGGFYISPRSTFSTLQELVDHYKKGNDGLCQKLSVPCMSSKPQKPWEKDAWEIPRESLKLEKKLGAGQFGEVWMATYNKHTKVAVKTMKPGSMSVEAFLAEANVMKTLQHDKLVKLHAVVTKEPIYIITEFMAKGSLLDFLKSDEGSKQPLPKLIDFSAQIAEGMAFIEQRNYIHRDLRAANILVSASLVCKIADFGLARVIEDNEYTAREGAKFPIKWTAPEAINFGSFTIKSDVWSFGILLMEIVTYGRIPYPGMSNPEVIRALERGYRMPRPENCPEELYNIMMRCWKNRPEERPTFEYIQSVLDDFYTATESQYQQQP
Sequence of FGFR3 (P22607 whole entry, looked up): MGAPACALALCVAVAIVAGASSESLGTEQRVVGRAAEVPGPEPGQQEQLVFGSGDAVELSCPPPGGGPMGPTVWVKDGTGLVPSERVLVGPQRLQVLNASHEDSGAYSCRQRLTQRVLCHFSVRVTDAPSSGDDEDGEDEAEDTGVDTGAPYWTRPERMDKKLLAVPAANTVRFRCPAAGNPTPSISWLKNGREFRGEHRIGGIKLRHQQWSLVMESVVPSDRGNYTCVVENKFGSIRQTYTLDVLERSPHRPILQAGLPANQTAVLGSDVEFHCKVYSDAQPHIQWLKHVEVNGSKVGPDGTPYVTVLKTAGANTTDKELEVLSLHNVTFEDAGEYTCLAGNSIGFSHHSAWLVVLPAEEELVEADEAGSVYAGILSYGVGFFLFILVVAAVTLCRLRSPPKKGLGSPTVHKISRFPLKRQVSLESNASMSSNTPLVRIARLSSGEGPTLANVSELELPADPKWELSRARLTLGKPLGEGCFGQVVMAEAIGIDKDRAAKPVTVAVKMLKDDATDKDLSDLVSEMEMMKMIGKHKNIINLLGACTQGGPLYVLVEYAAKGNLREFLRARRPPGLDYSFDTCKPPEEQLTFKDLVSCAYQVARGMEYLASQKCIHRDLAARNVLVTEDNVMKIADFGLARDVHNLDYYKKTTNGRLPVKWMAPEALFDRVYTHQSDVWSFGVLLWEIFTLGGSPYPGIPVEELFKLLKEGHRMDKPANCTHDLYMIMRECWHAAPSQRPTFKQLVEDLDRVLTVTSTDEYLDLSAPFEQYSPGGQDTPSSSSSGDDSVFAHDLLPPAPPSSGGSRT
Sequence of Jak2 (O60674 whole entry, looked up): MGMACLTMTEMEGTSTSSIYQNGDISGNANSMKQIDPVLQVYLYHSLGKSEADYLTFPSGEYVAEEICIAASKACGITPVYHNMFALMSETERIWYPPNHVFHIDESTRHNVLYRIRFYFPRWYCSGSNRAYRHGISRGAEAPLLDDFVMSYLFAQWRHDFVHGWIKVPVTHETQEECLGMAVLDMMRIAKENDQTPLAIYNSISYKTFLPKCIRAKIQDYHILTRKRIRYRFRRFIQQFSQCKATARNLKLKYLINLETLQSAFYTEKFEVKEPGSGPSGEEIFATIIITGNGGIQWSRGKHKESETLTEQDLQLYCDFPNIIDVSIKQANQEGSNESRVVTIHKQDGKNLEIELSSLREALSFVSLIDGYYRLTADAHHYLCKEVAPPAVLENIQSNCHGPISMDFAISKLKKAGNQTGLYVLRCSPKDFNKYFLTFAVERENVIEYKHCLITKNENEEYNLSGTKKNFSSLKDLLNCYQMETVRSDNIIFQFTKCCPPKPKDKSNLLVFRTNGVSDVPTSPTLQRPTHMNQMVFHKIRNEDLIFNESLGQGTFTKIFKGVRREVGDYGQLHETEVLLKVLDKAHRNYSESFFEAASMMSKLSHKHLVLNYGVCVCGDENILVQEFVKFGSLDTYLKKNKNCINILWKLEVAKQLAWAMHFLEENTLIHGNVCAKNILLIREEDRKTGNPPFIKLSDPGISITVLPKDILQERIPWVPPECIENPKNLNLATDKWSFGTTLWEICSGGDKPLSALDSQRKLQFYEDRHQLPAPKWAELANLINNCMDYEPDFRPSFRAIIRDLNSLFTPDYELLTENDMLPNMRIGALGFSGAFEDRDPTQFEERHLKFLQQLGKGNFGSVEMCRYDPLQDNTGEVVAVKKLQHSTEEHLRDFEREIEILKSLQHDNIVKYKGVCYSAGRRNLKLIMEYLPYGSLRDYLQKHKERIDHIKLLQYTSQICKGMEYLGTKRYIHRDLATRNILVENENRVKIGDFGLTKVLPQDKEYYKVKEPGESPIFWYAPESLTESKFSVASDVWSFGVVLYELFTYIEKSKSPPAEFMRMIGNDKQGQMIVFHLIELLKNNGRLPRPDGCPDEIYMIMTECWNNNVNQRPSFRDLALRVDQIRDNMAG
Sequence of FGFR1 (P11362 whole entry, looked up): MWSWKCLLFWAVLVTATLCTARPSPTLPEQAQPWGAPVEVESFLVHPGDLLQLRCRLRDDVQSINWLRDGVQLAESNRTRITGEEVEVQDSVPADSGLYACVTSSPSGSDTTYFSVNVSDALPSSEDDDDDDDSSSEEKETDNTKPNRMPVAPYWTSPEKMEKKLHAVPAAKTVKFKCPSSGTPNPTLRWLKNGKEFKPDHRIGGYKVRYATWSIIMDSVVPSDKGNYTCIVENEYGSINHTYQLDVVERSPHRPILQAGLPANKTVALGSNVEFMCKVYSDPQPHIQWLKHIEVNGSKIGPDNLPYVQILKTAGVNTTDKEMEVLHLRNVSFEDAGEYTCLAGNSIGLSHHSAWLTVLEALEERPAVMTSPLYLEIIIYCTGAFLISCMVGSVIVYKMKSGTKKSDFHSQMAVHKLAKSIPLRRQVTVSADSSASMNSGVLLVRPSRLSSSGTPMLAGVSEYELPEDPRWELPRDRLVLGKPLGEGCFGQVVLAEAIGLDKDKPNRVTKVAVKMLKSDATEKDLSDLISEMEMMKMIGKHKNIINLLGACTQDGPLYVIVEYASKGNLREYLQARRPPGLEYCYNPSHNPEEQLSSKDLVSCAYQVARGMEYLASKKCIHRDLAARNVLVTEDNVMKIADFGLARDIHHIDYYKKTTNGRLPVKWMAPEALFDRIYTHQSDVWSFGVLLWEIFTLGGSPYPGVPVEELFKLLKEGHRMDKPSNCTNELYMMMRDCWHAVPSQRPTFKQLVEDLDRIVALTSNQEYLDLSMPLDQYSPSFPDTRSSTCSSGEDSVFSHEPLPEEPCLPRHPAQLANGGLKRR
Sequence of Fes (P07332 whole entry, looked up): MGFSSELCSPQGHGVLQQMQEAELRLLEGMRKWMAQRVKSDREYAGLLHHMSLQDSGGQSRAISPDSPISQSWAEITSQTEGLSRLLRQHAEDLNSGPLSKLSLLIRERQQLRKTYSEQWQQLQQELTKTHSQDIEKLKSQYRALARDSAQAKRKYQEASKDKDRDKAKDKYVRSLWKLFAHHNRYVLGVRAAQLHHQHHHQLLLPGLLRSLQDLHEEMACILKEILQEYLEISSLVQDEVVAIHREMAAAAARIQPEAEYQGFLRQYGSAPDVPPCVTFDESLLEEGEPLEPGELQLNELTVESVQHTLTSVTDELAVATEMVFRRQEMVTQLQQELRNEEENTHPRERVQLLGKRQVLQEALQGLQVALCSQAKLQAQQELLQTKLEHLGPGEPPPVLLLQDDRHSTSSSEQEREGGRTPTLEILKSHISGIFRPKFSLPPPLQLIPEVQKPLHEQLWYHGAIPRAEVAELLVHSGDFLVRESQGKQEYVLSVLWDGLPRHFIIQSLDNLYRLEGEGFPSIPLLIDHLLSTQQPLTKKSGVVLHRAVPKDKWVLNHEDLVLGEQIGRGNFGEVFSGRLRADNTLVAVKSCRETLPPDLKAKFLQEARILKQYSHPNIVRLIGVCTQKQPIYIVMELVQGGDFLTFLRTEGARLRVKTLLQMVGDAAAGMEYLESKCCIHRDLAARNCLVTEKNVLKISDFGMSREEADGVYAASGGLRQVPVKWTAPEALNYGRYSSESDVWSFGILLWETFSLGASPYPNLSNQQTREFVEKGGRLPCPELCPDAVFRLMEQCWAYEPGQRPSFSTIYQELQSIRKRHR
Sequence of EPHB1 (P54762 whole entry, looked up): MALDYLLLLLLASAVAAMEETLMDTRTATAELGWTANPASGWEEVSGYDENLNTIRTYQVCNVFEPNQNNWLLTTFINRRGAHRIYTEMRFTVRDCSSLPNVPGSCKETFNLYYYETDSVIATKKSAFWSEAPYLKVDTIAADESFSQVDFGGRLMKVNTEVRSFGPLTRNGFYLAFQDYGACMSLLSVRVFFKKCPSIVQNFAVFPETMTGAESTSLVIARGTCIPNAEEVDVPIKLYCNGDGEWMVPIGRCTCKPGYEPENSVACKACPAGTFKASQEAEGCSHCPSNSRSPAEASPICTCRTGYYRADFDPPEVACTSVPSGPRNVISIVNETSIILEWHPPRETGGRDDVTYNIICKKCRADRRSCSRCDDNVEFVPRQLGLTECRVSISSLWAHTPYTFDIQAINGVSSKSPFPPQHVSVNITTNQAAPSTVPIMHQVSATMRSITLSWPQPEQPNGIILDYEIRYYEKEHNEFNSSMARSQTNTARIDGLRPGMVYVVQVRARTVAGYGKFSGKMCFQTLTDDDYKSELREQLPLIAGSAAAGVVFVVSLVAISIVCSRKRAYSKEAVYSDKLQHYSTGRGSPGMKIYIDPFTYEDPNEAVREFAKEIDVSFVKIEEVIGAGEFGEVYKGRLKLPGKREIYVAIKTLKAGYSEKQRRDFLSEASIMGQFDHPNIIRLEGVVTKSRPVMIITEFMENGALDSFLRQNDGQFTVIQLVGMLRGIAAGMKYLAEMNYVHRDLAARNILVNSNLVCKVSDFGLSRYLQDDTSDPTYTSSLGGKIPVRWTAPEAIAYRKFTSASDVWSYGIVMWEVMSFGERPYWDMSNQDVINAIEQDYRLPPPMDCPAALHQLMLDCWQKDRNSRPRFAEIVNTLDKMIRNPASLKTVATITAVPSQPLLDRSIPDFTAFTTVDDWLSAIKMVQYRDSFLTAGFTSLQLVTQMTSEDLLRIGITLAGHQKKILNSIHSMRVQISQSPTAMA

Sequence	phosphorylation enrichment [1]	phosphorylation enrichment [2]	phosphorylation enrichment [3]	phosphorylation enrichment [4]	phosphorylation enrichment [5]	phosphorylation enrichment [6]	phosphorylation enrichment [7]	phosphorylation enrichment [8]	phosphorylation enrichment [9]	phosphorylation enrichment [10]	phosphorylation enrichment [11]	phosphorylation enrichment [12]	phosphorylation enrichment [13]	SH2 binding enrichment [14]	SH2 binding enrichment [15]	SH2 binding enrichment [16]
QSHKVYFQHLL [POR_Y604_V605F]	0.725	0.622	1.22	0.663	0.991	1.52	0.698	0.473	0.503	0.915	0.671	1.14	0.598	0.623	0.836	0.761
QSHKVYVQHLL [POR_Y604]	0.594	0.867	0.798	0.618	0.806	0.971	0.742	0.908	0.572	0.977	0.444	0.919	0.858	0.665	0.979	1
QSKGIYYVQLE [MGAT4B_Y262]	8.64	3.51	1.47	3.33	1.1	1.42	0.763	2.5	0.872	3	1.12	1.21	2.22	1.35	0.724	1.71
QSSALYEDHYL [ASS1_Y83_R86H]	1.33	0.477	1.18	1.14	0.734	1.18	18.5	0.904	2.07	0.702	5.41	1.24	1.58	0.524	0.881	0.54
QTEGEYSSLEH [IDH3B_Y171]	0.556	0.995	1.64	1.26	1.94	1.82	0.836	0.886	1.01	0.874	0.91	1.79	1.04	0.721	0.71	0.634
QWPGPYDRPGA [HNRNPH2_Y210_R206W]	0.541	0.602	0.719	0.54	0.681	0.928	0.858	0.636	0.513	0.798	0.416	0.646	0.73	1.33	0.885	0.789
RAIDMYLMGCF [GABRB2_Y308_K303R]	0.601	0.777	1.83	1.29	1.58	1.79	0.799	0.907	0.706	1.19	0.848	1.87	0.888	0.332	0.886	0.572
RAIELYNDKEK [OTULIN_Y244]	0.54	0.923	1.69	0.747	0.845	1.51	0.657	0.558	0.821	0.924	0.73	1.52	1.08	0.467	0.735	0.746
RAILDYIASKY [GSTA3_Y74_N73D]	0.473	0.512	0.718	0.376	0.616	0.761	0.665	0.564	0.646	0.661	0.456	0.867	0.471	0.746	1.06	0.872
RALRHYYKLNI [ETV6_Y401]	0.763	1.46	0.504	0.201	0.371	0.606	0.402	0.685	0.415	1.03	1.29	1.07	0.95	1.47	2.09	1.17
RARIRYAQEHD [NSD1_Y1987]	0.627	0.689	0.691	0.636	0.706	0.885	0.737	0.757	1.19	0.625	0.727	1.12	0.85	0.572	0.663	0.536
RASDFYSQQMA [GBP6_Y334_A331S_YF]	0.957	0.444	0.688	0.675	0.738	0.682	0.37	0.423	0.683	0.605	0.708	0.755	0.539	0.649	0.739	0.575
RASQEYHIVKK [PDZD2_Y557_S552R]	0.356	0.881	1.06	0.643	0.841	1.08	0.571	0.289	0.471	0.784	0.754	0.772	0.607	1.11	1.01	1.03
RAYRHYLLKQK [SCN2A_Y1919_R1918H]	0.571	0.31	0.47	0.583	0.376	0.597	0.332	0.632	0.602	0.607	0.334	0.52	0.414	0.442	0.677	0.51
RDSQIYAVDFE [MRPS34_Y34_L33I_YF]	5.64	0.664	1.15	7.72	0.959	1.22	0.717	6.32	1.17	0.656	1.08	1.66	2.83	0.688	0.88	0.806
RDSQLYAVDFE [MRPS34_Y34_YF]	1.9	0.53	1.09	1.35	0.876	1.58	0.728	0.993	0.869	0.788	1.04	1.49	0.908	0.701	1.37	1.07
RDSQLYAVDYE [MRPS34_Y34]	2.12	1.08	2.07	1.63	0.966	2.77	0.871	1.33	1.05	1.38	0.904	2.1	1.41	0.545	0.69	0.631

Sequence	phosphorylation enrichment [1]	phosphorylation enrichment [2]	phosphorylation enrichment [3]	phosphorylation enrichment [4]	phosphorylation enrichment [5]	phosphorylation enrichment [6]	phosphorylation enrichment [7]	phosphorylation enrichment [8]	phosphorylation enrichment [9]	phosphorylation enrichment [10]	phosphorylation enrichment [11]	phosphorylation enrichment [12]	phosphorylation enrichment [13]	SH2 binding enrichment [14]	SH2 binding enrichment [15]	SH2 binding enrichment [16]
REAAAYPHGRL [AGXT_Y297_L298P]	0.32	0.25	0.704	0.329	0.415	0.46	0.192	0.274	0.442	0.41	0.254	0.516	0.404	0.55	0.989	0.739
REEIKYMLWLS [OTC_Y55_G50R]	0.734	0.961	1.15	0.474	0.944	1.58	0.955	0.661	0.992	1.4	0.697	1.23	0.786	0.502	0.642	0.775
REESTYLPLTS [ICAM3_Y527]	0.803	1.19	1.41	2.39	0.674	1.75	1	1.35	0.894	1.51	0.88	1.62	3.17	0.787	0.961	0.811
RESSGYLRLAF [MEP1A_Y481]	1.07	0.593	2.85	1.11	1.23	1.8	0.93	0.732	1.21	1.25	1.08	1.46	0.872	0.991	1.18	5.52
RETLTYAQAQR [BRD1_Y33]	0.529	0.541	0.694	0.623	0.963	0.737	0.42	0.584	0.478	0.525	0.383	0.702	0.746	0.753	0.904	0.819
RFLERDIFNRE [HLA-DPB1_Y57_Y57D_YF]	0.548	0.682	1.69	0.584	1.29	1.01	1.01	0.518	0.569	1.1	0.769	1.17	0.771	0.565	0.927	0.707
RFWPRYVKVGS [NOG_Y172]	0.46	0.487	0.622	0.535	0.691	0.624	0.726	0.68	0.478	0.751	0.532	1.36	0.726	0.446	0.701	0.429
RGDCMYAPLLG [AR_Y269]	10.4	3.08	0.743	5.61	5.89	0.885	4.16	8.2	8.4	1.83	7.23	0.898	10.9	1.04	0.98	0.739
RGDIFYTSKLW [AKR1C3_Y81_E77G]	0.803	0.923	1.33	0.735	0.889	1.59	0.648	0.611	0.963	1.09	0.964	1.72	0.46	0.55	0.919	0.888
RGDVIYKGFED [NFU1_Y194_G189R]	0.481	0.514	0.815	2.03	0.445	1.03	0.681	4.47	0.672	0.699	0.622	0.81	1.07	0.488	0.797	0.634
RGFDTYFGYLL [ARSB_Y165]	4.01	3.58	5.83	6.46	1.56	1.63	3.59	8.58	8.25	3.3	5.14	2.15	7.09	0.417	1	1.42
RGKDSYETSQL [SPP1_Y225]	0.5	0.632	0.643	0.449	0.313	0.913	0.594	0.484	0.529	0.697	0.552	0.681	0.412	0.482	0.698	0.381
RGLQVYHKRNA [LRP2_Y2010_R2012K]	0.496	0.433	0.654	0.497	0.561	0.985	0.517	0.496	0.468	0.642	0.45	0.545	0.59	0.567	0.943	0.539
RIPFRYPKEFQ [IDS_Y234_H229R]	0.637	0.78	1.48	1.1	0.998	1.14	0.627	0.56	0.646	1.07	0.571	0.946	1.07	0.414	0.447	0.531
RIVEIYSRSLQ [GCH1_Y175_R178S]	1.17	0.753	0.895	1.28	1.07	1.95	0.87	1.52	0.985	1.67	1.03	1.43	2.61	0.485	0.944	0.701
RLDRSYSYSYS [PEAR1_Y890]	0.569	0.594	0.374	0.42	0.359	0.597	0.467	0.334	0.434	0.42	0.443	0.655	0.5	1.41	0.782	1.12
